# According to patent US12006368 (SURROZEN OPERATING, dated 2024):
# T1: hFzd3 CRD-Xtal (hFzd3_Q9NPG1_23-148) (human, UniProt Q9NPG1 23-148)
# T1 construct: complex incubated with carboxypeptidase A and B before crystallisation
# T1 sequence: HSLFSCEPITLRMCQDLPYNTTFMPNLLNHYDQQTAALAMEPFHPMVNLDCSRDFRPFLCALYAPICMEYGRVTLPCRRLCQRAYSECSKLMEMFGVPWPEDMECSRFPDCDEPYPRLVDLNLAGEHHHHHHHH
# T2: Frizzled 6 (human, UniProt O60353 19-145, limits assumed)
# T2 construct: the antigen of the phage ELISA is only called 'target antigen'; also called Fzd6; Fz6
# T2 sequence (looked up): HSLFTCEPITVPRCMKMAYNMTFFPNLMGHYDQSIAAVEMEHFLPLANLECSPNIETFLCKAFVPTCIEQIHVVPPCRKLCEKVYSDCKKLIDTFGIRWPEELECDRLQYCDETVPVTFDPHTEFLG
# T3: hFzd5 CRD-Xtal (hFzd5_Q13467_27-152) (human, UniProt Q13467 27-152)
# T3 construct: complex incubated with carboxypeptidase A and B before crystallisation
# T3 sequence: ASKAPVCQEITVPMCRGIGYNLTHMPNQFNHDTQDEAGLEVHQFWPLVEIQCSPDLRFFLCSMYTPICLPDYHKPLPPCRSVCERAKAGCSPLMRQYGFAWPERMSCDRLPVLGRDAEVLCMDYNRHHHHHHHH
# Tests used:
# [1] = target: T4, Fzd1 cysteine rich domain (CRD), C-terminally biotinylated (human, UniProt Q9UP38 101-230); assay: BLI; **=Kd >100 nM
# Protocol: (§1) Binding kinetics of antibody fragments to a variety of Fzd cysteine rich domain (CRD) protein targets (Fzd1, Fzd2, Fzd3, Fzd4, Fzd5, Fzd6, Fzd7, Fzd8, Fzd9 and/or Fzd10 CRDs) was determined by bio-layer interferometry (BLI) using Octet Red 96 (PALL ForteBio, Fremont, CA) instruments at 30° C., 1000 rpm with streptavidin (SA) biosensors. C-terminal biotinylated Fzd CRD recombinant protein was diluted to 20 nM in the running buffer (PBS, 0.05% Tween-20, 0.5% BSA, pH 7.2) and captured to the SA biosensor until coupling length reached 0.2 nm. Following capture of the Fzd CRD, the SA biosensor with captured biotinylated-Fzd CRD was dipped into wells containing the relevant antibody fragment at […] (0, 1.37, 4.12, 12.4, 37, 111.1, 333.3, 1000 nM) in running buffer, plus a well with only running buffer as a reference channel. […] was determined by global fitting, 1:1 binding model according to manufacturer recommended settings.
# One antibody fragment, clone 001S-A04, was selected for alanine-scanning mutagenesis of CDRs, and the respective Fzd1 binding affinities of the various mutants were determined by Octet BLI as described in Example 1.
# [2] = target: T1, hFzd3 CRD-Xtal (hFzd3_Q9NPG1_23-148); assay: size-exclusion chromatography of the Fzd CRD_Xtal:Fab mixture
# Protocol: (§2) Purfied Fzd CRD_Xtal and Fab binders were mixed at 1.1:1 molar ratio (little excess of the smaller molecular weight protein), and incubated with carboxy-peptidase A and B at a w/w ratio of 100:1 for over-night at 4° C. Complex formation was confirmed by observation of a single-major peak on SuperdexS200 Increase (10/300 GL) column pre-equilibrated in HBS. Fractions containing complexes were further checked by SDS-PAGE, and concentrated to a range from 10 to 55 mg/mL for crystallization screens. Initial crystallization screen, using commercially available MCSG1, MCSG2, MCSG3, MCSG4, PACT (Molecular Dimensions), PEGs I, and PEGs II (Qiagen) screen, and optimization by grid-screens or microseed matrix screen [MMS; Microseed matrix screening for optimization in protein crystallization: what have we learned? D'Arcy, A., Bergfors, T., Cowan-Jacob S. W., and Marshd, M. Acta Cryst. F70, 1117-1126 (2014)]. were performed using Mosquito (TTP LabTech) liquid handler, and equilibrated at 18° C. inside an EchoTherm incubator (Torrey Pines Scientific). 96-well plate crystal screening experiments were periodically monitored manually via a DiscoveryV20 stereomicroscope (Zeiss), and crystals were frozen for data collection by plunging into liquid nitrogen in the presence of various cryo-protectants (typically 15 to 30% v/v of glycerol or ethyleneglycol). X-ray diffraction datasets were collected at the Berkeley Center for Structural Biology at the Advanced Light Source (ALS), Berkeley CA, and processed with XDS [Kabsch, W. XDS. Acta Cryst. D66, 125-132 (2010)], and xdsme [Legrand, P. XDSME: XDS Made Easier (2017) GitHub repository, https://github-.com/legrandp/xdsme DOI 10.5281/zenodo.837885]. programs. Structure of Fzd:Fab complexes were determined by molecular replacement method using Phaser with constant and variable domains of related Fabs are template [Phaser crystallographic software. A. J. McCoy, R. W. Grosse-Kunstleve, P. D. Adams, M. D. Winn, L. C. Storoni, and R. J. Read. J Appl Crystallogr 40, 658-674 (2007)], followed by refinement and validation by MolProbity as implemented in Phenix [PHENIX: a comprehensive Python-based system for macromolecular structure solution.
# Frizzled 6 = target: T2, Frizzled 6; assay: phage ELISA on immobilized antigen (initial binding)
# Protocol: Detection of bound phage was determined […] by turnover of TMB substrate (Thermo Fisher Scientific, Waltham, MA) at […] by anti-M13-HRP antibody (GE Healthcare, Pittsburgh, PA). Clones were identified as binding to a Fzd receptor when the fold OD 450 nm over background was greater than a threshold level.
# [3] = target: T4, Fzd1 cysteine rich domain (CRD), …; assay: BLI; *=Kd <100 nM
# Protocol: as §1
# (§3) Table 1B provides clone IDs, the sequence identifier number of the antibody heavy chain fragment and/or light chain fragment, if present, for illustrative clones. In certain embodiments, the Fzd binding domain is an Fab or was derived from an Fab, so the heavy chain of Table 1B includes VH and CH1 sequence, but not CH2 or CH3 sequences. In certain embodiments, the Fzd binding domain is a VHH or sdAb® or was derived from a VHH or sdAb, so Table 1B includes the VHH domain. […] The Kd values were determined by BLI as described above. Blank entries denote that the binding to the specific Fzd receptor has not yet been determined. The entry of "n.b." indicates no binding.
# [4] = target: T5, Fzd7 cysteine rich domain (CRD), C-terminally biotinylated (human, UniProt O75084 36-165); assay: BLI; *=Kd <100 nM
# Protocol: as §1, §3
# [5] = target: Fzd2 cysteine rich domain (CRD), C-terminally biotinylated (human, UniProt Q14332 24-155); assay: BLI; **=Kd 100-2000 nM
# Protocol: as §1, §3
# [6] = target: hFzd1 CRD-Xtal (hFzd1_Q9UP38_101-230) (human, UniProt Q9UP38 101-230); assay: size-exclusion chromatography of the Fzd CRD_Xtal:Fab mixture
# Protocol: as §2
# [7] = target: T4, Fzd1 cysteine rich domain (CRD), …; assay: BLI; **=Kd 100-2000 nM
# Protocol: as §1, §3
# [8] = target: T5, Fzd7 cysteine rich domain (CRD), …; assay: BLI; **=Kd 100-2000 nM
# Protocol: as §1, §3
# [9] = target: T3, hFzd5 CRD-Xtal (hFzd5_Q13467_27-152); assay: size-exclusion chromatography of the Fzd CRD_Xtal:Fab mixture
# Protocol: as §2
binder,measurement,setting,value
"001S-A04 mutant VHT6A (Fab, V domains shown) VH: EVQLVQSGAEVKKPGASVKVSCKASGYTFTSYGISWVRQAPGQGLEWMGWISAYNGNTNYAQKLQGRVTMTTDTSTSTAYMELRSLRSDDTAVYYCASSKEKAAYYYGMDVWGQGTTVTVSS VL: QAVVLQEPSLSVSPGGTVTLTCGLSSGSVSTNYYPSWYQQTPGQAPRTLIYYTNTRSSDVPERFSGSIVGNKAALTITGAQPDDESVYFCLLYLGRGIWVFGGGTKLTVLG",KD,[1],> 100 nM
"001S-A04 mutant VLW9A (Fab, V domains shown) VH: EVQLVQSGAEVKKPGASVKVSCKASGYTFTSYGISWVRQAPGQGLEWMGWISAYNGNTNYAQKLQGRVTMTTDTSTSTAYMELRSLRSDDTAVYYCASSKEKATYYYGMDVWGQGTTVTVSS VL: QAVVLQEPSLSVSPGGTVTLTCGLSSGSVSTNYYPSWYQQTPGQAPRTLIYYTNTRSSDVPERFSGSIVGNKAALTITGAQPDDESVYFCLLYLGRGIAVFGGGTKLTVLG",KD,[1],> 100 nM
"001S-A04 mutant VHY9A (Fab, V domains shown) VH: EVQLVQSGAEVKKPGASVKVSCKASGYTFTSYGISWVRQAPGQGLEWMGWISAYNGNTNYAQKLQGRVTMTTDTSTSTAYMELRSLRSDDTAVYYCASSKEKATYYAGMDVWGQGTTVTVSS VL: QAVVLQEPSLSVSPGGTVTLTCGLSSGSVSTNYYPSWYQQTPGQAPRTLIYYTNTRSSDVPERFSGSIVGNKAALTITGAQPDDESVYFCLLYLGRGIWVFGGGTKLTVLG",KD,[1],> 100 nM
"001S-A04 mutant VHY7A (Fab, V domains shown) VH: EVQLVQSGAEVKKPGASVKVSCKASGYTFTSYGISWVRQAPGQGLEWMGWISAYNGNTNYAQKLQGRVTMTTDTSTSTAYMELRSLRSDDTAVYYCASSKEKATAYYGMDVWGQGTTVTVSS VL: QAVVLQEPSLSVSPGGTVTLTCGLSSGSVSTNYYPSWYQQTPGQAPRTLIYYTNTRSSDVPERFSGSIVGNKAALTITGAQPDDESVYFCLLYLGRGIWVFGGGTKLTVLG",KD,[1],> 100 nM
"029S-E03 Fab (Fab, V domains shown, heavy chain with C-terminal hexa-histidine tag; carboxypeptidase A and B treated in the complex) VH: QVQLVQSGAEVKKPGASVKVSCKASGYTFTGYYMHWVRQAPGQGLEWMGWINPNSGNTGYAQKFQGRVTMTRDTSTSTVYMELSSLRSEDTAVYYCARSYYGVIDAFDIWGQGTMVTVSS VL: DIQMTQSPSSLSASVGDRVTITCRASQSISSYLNWYQQKPGKAPKLLIYAASSLQTGVPSRFSGSGSGTDFTLTISSLQPEDFATYYCQQSFRLPLTFGQGTKVEIKR",binding result,[2],binds
"004S-E09 (antibody, V domains shown) VH: QVQLVQSGAEVKKPGASVKVSCKASGDTFSNYVISWVRQAPGQGLEWMGRISAYNGYKSYAQNFQGRVTMTRDTSTSTVYMELSSLRSEDTAVYYCARSSGYVGWFDPWGQGTLVTVSS VL: not shown",binding result,Frizzled 6,binds
"001S-E02 (Fab, V domains shown) VH: QVQLQESGPGLVKPSETLSLTCTVSGGSISGNNYYWGWIRQPPGKGLEWIGSIYFTGGTYYNPSLKSRVTISVDTSKNQFSLKLSSVTAADTAVYYCARVMLITDAFDIWGQGTMVTVSS VL: not shown",Kd,[3],< 100 nM
same,Kd,[4],< 100 nM
same,Kd,[5],100 to 2000 nM
"R2M9 (003S-E07) Fab (Fab, V domains shown, heavy chain with C-terminal hexa-histidine tag; carboxypeptidase A and B treated in the complex) VH: QVQLVQSGAEVKKPGSSVKVSCKASGYTFTNNFMHWVRQAPGQGLEWMGWINPNSGGTKYAQKFQGRVTITADESTSTAYMELSSLRSEDTAVYYCARSVGEVGATMLGIGVWYWFDPWGQGTLVTVSS VL: not shown",binding result,[6],binds
"001S-H02 (Fab, V domains shown) VH: QVQLQESGPGLVKPSETLSLTCTVSGGSISSSSYYWGWIRQHPGKGLEWIGYIYYSGSTYYNPSLKSRVTISVDTSKNQFSLKLNSVTAADTAVYYCARATYGGDAFDIWGQGTMVTVSS VL: QSVVTQPPSVSGAPGQRVTISCTRSSSNIGAGYDVHWYQQHPGTAPKLLIFGNSIRPSGVPDRFSGSKSGTSATLGITGLQTGDEADYYCGTWDSSLSAWVFGGGTKLTVLG",Kd,[7],100 to 2000 nM
same,Kd,[5],100 to 2000 nM
same,Kd,[8],100 to 2000 nM
"4A12 Fab (Fab, V domains shown, heavy chain with C-terminal hexa-histidine tag; carboxypeptidase A and B treated in the complex) VH: QVQLQQSGPELVKPGASVKLSCKASGYTFTNYDINWVKQRPGQGLEWIGWIYPRDGSTKYNEKFKGKATLTVDTSSSTAYMELHSLTSEDSAVYFCVRSAWGFAYWGQGTLVTVSA VL: DIVMTQSHKFMSTSVGDRVSITCKASQDVGTAVAWYQQKPGQSPKLLIYWASTRHTGVPDRFTGSGSGTDFTLTINNVQSEDLADYFCQQYSTYPLTFGAGTKLELKR",binding result,[9],binds
"001S-A03 (Fab, V domains shown) VH: QLQLQESGPGLVKPSQTLSLTCTVSGGSISSGGYYWSWIRQHPGKGLEWIGYIYYSGSTYYNPSLKSRVTISVDKSKNQFSLKLSSVTAADTAVYYCARVRDYYDSSGYYYDYFDYWGQGTLVTVSS VL: DIQLTQSPSSLSASVGDRVTITCRASRSISSYFNWYQQKPGKAPKLLIYAASSLQSGVPSRFSGSRSGTDFTLTISSLQPEDFATYYCQQADTFPPTFGQGTRLEIKR",Kd,[3],< 100 nM
same,Kd,[5],100 to 2000 nM
same,Kd,[8],100 to 2000 nM
